From publication PMC7047192 (EBioMedicine, 2020)

Target: Flag-EGFR purified from 293T cells (UniProt P00533 25-1210)
Test: co-IP

binding result: binds
B1: His-CDC34 (enzyme)
chain: MARPLVPSSQKALLLELKGLQEEPVEGFRVTLVDEGDLYNWEVAIFGPPNTYYEGGYFKARLKFPIDYPYSPPAFRFLTKMWHPNIYETGDVCISILHPPVDDPQSGELPSERWNPTQNVRTILLSVISLLNEPNTFSPANVDASVMYRKWKESKGKDREYTDIIRKQVLGTKVDAERDGVKVPTTLAEYCVKTKAPAPDEGSDLFYDDYYEDGEVEEEADSCFGDDEDDSGTEES
